Patent publication US7063950
pKd: −log10 of the molar value.

Tests used:
[1] = target: human neuronal calcium channel subunits α1B-1α2b (human)
[2] = target: human neuronal calcium channel subunits α1B-1α2b (human); remark: listed apart in the source
[3] = target: human neuronal calcium channel subunits α1B-1β1-2 (human)
[4] = target: human neuronal calcium channel subunits α1B-1β1-3 (human)
[5] = target: human neuronal calcium channel α1B-1α2bβ1-2 (human)
[6] = target: human neuronal calcium channel α1B-1α2bβ1-3 (human)
[7] = target: human neuronal calcium channel α1B-2α2bβ1-2 (human)
[8] = target: human neuronal calcium channel subunits α1B-1β1-2 (human); experiment: saturation binding of 125I-ω-CgTx GVIA to transiently transfected HEK293 cells
[9] = target: human neuronal calcium channel subunits α1B-1β1-3 (human); experiment: as above
[10] = target: human neuronal calcium channel subunits α1B-2β1-2 (human); experiment: as above
[11] = target: human neuronal calcium channel subunits α1B-2β1-3 (human); experiment: as above
[12] = target: human neuronal calcium channel α1B-1α2bβ1-2 (human); experiment: as above
[13] = target: human neuronal calcium channel α1B-1α2bβ1-3 (human); experiment: as above
[14] = target: human neuronal calcium channel α1B-2α2bβ1-2 (human); experiment: as above
[15] = target: human neuronal calcium channel α1E-3α2bβ1-3 (human); experiment: cell-based or functional assay

Substance: 125I-ω-CgTx GVIA (from UniProt P01522 46-72) (peptide)
- Bmax (sites/cell) [1]: 2260 sites/cell
- pKd [1]: 10.07
- fold increase of binding capacity against α1B-1 alone [2]: 3 fold
- fold increase of surface binding against α1B-1 alone [3]: 8 fold
- fold increase of surface binding against α1B-1 alone [4]: 10 fold
- fold binding sites per cell against α1B-2α2bβ1-2 [5]: 2.5 fold
- fold surface receptor density against α1B-1β1-2 [5]: 8 fold
- fold binding capacity against α1B-1α2bβ1-2 [6]: 2 fold
- fold binding sites per cell against α1B-2α2bβ1-3 [6]: 2.5 fold
- fold surface receptor density against α1B-1β1-3 [6]: 10 fold
- fold surface receptor density against α1B-2β1-2 [7]: 9 fold
- Bmax (sites/cell) [8]: 5760 sites/cell
- pKd [8]: 10.75
- Bmax (sites/cell) [9]: 8730 sites/cell
- pKd [9]: 10.75
- Bmax (sites/cell) [10]: 2130 sites/cell
- pKd [10]: 10.79
- Bmax (sites/cell) [11]: 2940 sites/cell
- pKd [11]: 10.65
- Bmax (sites/cell) [12]: 45300 sites/cell
- pKd [12]: 10.26
- Bmax (sites/cell) [13]: 91000 sites/cell
- pKd [13]: 10.27
- Bmax (sites/cell) [14]: 19400 sites/cell
- pKd [14]: 10.28

Substance: ω-Aga-IVa (from UniProt P30288 1-48) (peptide)
- block of barium current (whole-cell patch clamp, HEK 293 cells) (% block at 10 nM) [15]: 73
